This note sets out measurements from article PMC11568366.

The test has as its target SET/template-activating factor Iβ (SET/TAF-Iβ), recombinant (UniProt Q01105). Description: ITC; 300 μM reduced Cc injected (17 x 2.91 μL) into 30 μM SET/TAF-Iβ (as homodimer) in the cell, 25°C, 10 mM sodium phosphate pH 7.4; WT fitted with two cooperative binding sites, mutants with independent binding sites. (In general: In ITC the heat of successive injections is recorded.)

As usually defined, the Kd is the equilibrium constant for the complex coming apart. The stoichiometry N is a count of units in the complex or per binding partner. “Y48pCMF cytochrome c phosphomimetic mutant (reduced) (from UniProt P99999 2-105) (natural protein)”: the Kd worked out at 23 µM, the dH was -4.6 kcal/mol and the stoichiometry N came out at 2.2.
